Reference: the Immune Epitope Database (IEDB)

How the values were obtained:
HLA-A*30:01 = assay: IEDB peptide-MHC binding, purified MHC/competitive/radioactivity; filed as Kd, often an IC50 or EC50 that approximates it; ≥ and ≤ were set here for values at or beyond the usual limits of such assays
HLA-A*01:01 [1] = assay: IEDB peptide-MHC binding, purified MHC/direct/fluorescence; filed as Kd, often an IC50 or EC50 that approximates it; ≥ and ≤ were set here for values at or beyond the usual limits of such assays; conditions: source organism: SARS-CoV1
HLA-A*03:01 [2] = assay: as above
HLA-A*11:01 [3] = assay: as above
HLA-B*15:01 = assay: as above
HLA-B*58:01 = assay: as above; conditions: source organism: SARS-CoV1
HLA-A*23:01 = assay: IEDB peptide-MHC binding, purified MHC/competitive/radioactivity; filed as Kd, often an IC50 or EC50 that approximates it; ≥ and ≤ were set here for values at or beyond the usual limits of such assays
HLA-A*24:02 = assay: as above
HLA-A*26:01 = assay: as above
HLA-A*29:02 = assay: as above
HLA-A*30:02 = assay: as above
HLA-A*02:01 [4] = assay: IEDB peptide-MHC binding, purified MHC/competitive/fluorescence; ≥ and ≤ were set here for values at or beyond the usual limits of such assays
HLA-A*02:01 [5] = assay: IEDB peptide-MHC binding, purified MHC/competitive/fluorescence; filed as Kd, often an IC50 or EC50 that approximates it; ≥ and ≤ were set here for values at or beyond the usual limits of such assays
HLA-A*02:01 [6] = assay: IEDB peptide-MHC binding, purified MHC/direct/fluorescence; filed as Kd, often an IC50 or EC50 that approximates it; ≥ and ≤ were set here for values at or beyond the usual limits of such assays
HLA-A*69:01 = assay: as above
HLA-A*31:01 [7] = assay: as above
HLA-A*01:01 [8] = assay: IEDB peptide-MHC binding, purified MHC/competitive/radioactivity; filed as Kd, often an IC50 or EC50 that approximates it; ≥ and ≤ were set here for values at or beyond the usual limits of such assays
HLA-B*27:05 = assay: IEDB peptide-MHC binding, purified MHC/direct/fluorescence; filed as Kd, often an IC50 or EC50 that approximates it; ≥ and ≤ were set here for values at or beyond the usual limits of such assays; conditions: source organism: Homo sapiens
HLA-A*03:01 [9] = assay: IEDB peptide-MHC binding, purified MHC/competitive/radioactivity; filed as Kd, often an IC50 or EC50 that approximates it; ≥ and ≤ were set here for values at or beyond the usual limits of such assays
HLA-A*11:01 [10] = assay: as above; conditions: source organism: Vaccinia virus WR
HLA-A*31:01 [11] = assay: as above; conditions: source organism: Vaccinia virus WR
HLA-A*33:01 = assay: as above; conditions: source organism: Vaccinia virus WR
HLA-A*68:01 = assay: as above; conditions: source organism: Vaccinia virus WR
HLA-B*07:02 = assay: IEDB peptide-MHC binding, purified MHC/direct/fluorescence; filed as Kd, often an IC50 or EC50 that approximates it; ≥ and ≤ were set here for values at or beyond the usual limits of such assays; conditions: source organism: Brucella suis
[12] = source organism: Dengue virus 4 Philippines/H241/1956
[13] = source organism: SARS coronavirus Tor2
[14] = source organism: Vaccinia virus WR
[15] = source organism: Escherichia coli
[16] = source organism: Dengue virus 1 Brazil/97-11/1997
[17] = source organism: Vaccinia virus Copenhagen
[18] = source organism: Zaire ebolavirus
[19] = source organism: Dengue virus 2 Peru/IQT2913/1996
[20] = source organism: Mammarenavirus brazilense
[21] = source organism: Pseudomonas aeruginosa
[22] = source organism: Vibrio cholerae
[23] = source organism: Dengue virus 3 Martinique/1243/1999
[24] = source organism: Dengue virus 4 Thailand/0348/1991
[25] = source organism: Lymphocytic choriomeningitis virus (strain Armstrong)
[26] = source organism: Mammarenavirus guanaritoense

RVLSIPPTA gave a Kd (HLA-A*30:01; [12]) of 0.118 µM.
With TSNPKTPKY the Kd (HLA-A*01:01 [1]) was 4.51 µM, the Kd (HLA-A*03:01 [2]; source organism: SARS-CoV1) was 1.23 µM and the Kd (HLA-A*11:01 [3]; source organism: SARS-CoV1) was 14.3 µM. For the same sequence, the Kd (HLA-B*15:01; source organism: SARS-CoV1) was 0.393 µM, the Kd (HLA-B*58:01) was 0.212 µM and the Kd (HLA-A*23:01; [13]) was ≥ 77.8 µM. The Kd (HLA-A*24:02; [13]) was ≥ 77.6 µM, the Kd (HLA-A*26:01; [13]) was ≥ 56.4 µM and the Kd (HLA-A*29:02; [13]) was 0.549 µM. For the same sequence, the Kd (HLA-A*30:02; [13]) was 0.000228 µM.
For DLCGSVFLV, the IC50 (HLA-A*02:01 [4]; source organism: Hepatitis C virus genotype 1) was 5 µM.
With KSKSRRLNL the Kd (HLA-A*30:01; [14]) was 0.0126 µM.
With MLAESCDSV the Kd (HLA-A*02:01 [5]; source organism: Vaccinia virus) was 0.0011 µM.
For MTRLPILLL, the Kd (HLA-A*30:01; [14]) was 0.000646 µM.
Sequence GVVTKSGDY has a Kd (HLA-A*26:01; [12]) of 2.42 µM and a Kd (HLA-A*30:02; [12]) of 0.98 µM.
For TLVPQEHYV, the Kd (HLA-A*02:01 [6]; source organism: SARS-CoV1) was 0.119 µM, the Kd (HLA-A*11:01 [3]; source organism: SARS-CoV1) was ≥ 43.2 µM and the Kd (HLA-A*69:01; source organism: SARS-CoV1) was 0.0795 µM.
Sequence KSHAIYWDK has a Kd (HLA-A*30:01; [14]) of 0.0105 µM.
RRNNRVFFR was tested, and the Kd (HLA-A*03:01 [2]; [15]) was ≥ 20 µM and the Kd (HLA-A*31:01 [7]; [15]) was 0.0177 µM.
For WTEQYKFQA, the Kd (HLA-A*01:01 [8]; [16]) was ≥ 20.2 µM.
ILGTVSWNL was tested, and the Kd (HLA-A*02:01 [6]; source organism: SARS-CoV1) was 0.382 µM, the Kd (HLA-A*69:01; source organism: SARS-CoV1) was ≥ 22.9 µM and the Kd (HLA-B*58:01) was 0.804 µM.
Sequence CLTEYILWV has a Kd (HLA-A*02:01 [5]; [17]) of 0.0107 µM.
AHSTIMPRL gave a Kd (HLA-A*69:01; source organism: Homo sapiens) of 0.832 µM and a Kd (HLA-B*27:05) of 8.62 µM.
With RIQQYMFFM the Kd (HLA-A*02:01 [5]; source organism: Human alphaherpesvirus 1 strain 17) was 0.081 µM.
In the case of RSQGPFDAV, the IC50 (HLA-A*02:01 [4]; [18]) is reported as ≥ 163 µM.
For GMSRIGMEV, the Kd (HLA-A*02:01 [5]; source organism: SARS-CoV1) was 0.0016 µM.
For VLTLATGPVL, the Kd (HLA-A*30:01; [12]) was 1.5 µM.
For LNASQYANC, the IC50 (HLA-A*02:01 [4]; [17]) was ≥ 1400 µM.
For IVQPENLEY, the Kd (HLA-A*01:01 [8]; [19]) was 0.512 µM and the Kd (HLA-A*30:02; [19]) was 0.11 µM.
LYTVKFPNLI was tested, and the Kd (HLA-A*23:01; [20]) was 0.538 µM, the Kd (HLA-A*24:02; [20]) was 0.605 µM and the Kd (HLA-A*29:02; [20]) was ≥ 54.7 µM.
In the case of AKQPATLRKY, the Kd (HLA-A*30:02; source organism: Dengue virus 2 Jamaica/1409/1983) is reported as 5.24 µM.
With LQKVPHTRY the Kd (HLA-A*31:01 [7]; [21]) was 17.2 µM and the Kd (HLA-B*15:01; [21]) was 0.476 µM.
With ASHFISNSW the Kd (HLA-A*11:01 [3]; source organism: SARS-CoV1) was ≥ 53 µM, the Kd (HLA-B*15:01; source organism: SARS-CoV1) was 11.4 µM and the Kd (HLA-B*58:01) was 0.072 µM.
With KIGDFGLATV the IC50 (HLA-A*02:01 [4]; source organism: Homo sapiens) was 0.04 µM.
With RVLFSIFYK the Kd (HLA-A*03:01 [9]; [14]) was 0.00535 µM, the Kd (HLA-A*11:01 [10]) was 0.0532 µM and the Kd (HLA-A*30:01; [14]) was 0.118 µM. For the same sequence, the Kd (HLA-A*31:01 [11]) was 0.000861 µM, the Kd (HLA-A*33:01) was 1.86 µM and the Kd (HLA-A*68:01) was 0.12 µM.
Work on AIKVLRGFK yielded a Kd (HLA-A*03:01 [9]; [16]) of 0.119 µM and a Kd (HLA-A*30:01; [16]) of 0.501 µM.
For KLSNAKWLA, the Kd (HLA-A*02:01 [6]; [22]) was 0.413 µM, the Kd (HLA-A*31:01 [7]; [22]) was 1.63 µM and the Kd (HLA-B*15:01; [22]) was 1.63 µM.
For LFSGVSWVM, the Kd (HLA-A*24:02; [23]) was 0.105 µM.
For TTPENITTA, the IC50 (HLA-A*02:01 [4]; source organism: Sudan ebolavirus) was 19 µM.
For LTSREVLLL, the Kd (HLA-A*01:01 [8]; [16]) was 0.288 µM.
With RGWGNGCGLF the Kd (HLA-A*23:01; [24]) was 0.898 µM and the Kd (HLA-A*30:02; [24]) was 0.0154 µM.
LAGVSLLPVC gave a Kd (HLA-A*30:01; [23]) of 15.9 µM.
For VVLTGGTGV, the IC50 (HLA-A*02:01 [4]; source organism: Variola virus) was 3.8 µM.
Work on LTLKPCHAL yielded a Kd (HLA-A*02:01 [6]; source organism: Brucella suis) of 4.76 µM, a Kd (HLA-A*11:01 [3]; source organism: Brucella suis) of 18 µM and a Kd (HLA-A*69:01; source organism: Brucella suis) of 0.546 µM. The Kd (HLA-B*07:02) was 1.96 µM.
KHKIFSPFK showed a Kd (HLA-A*30:01; [14]) of 0.000886 µM.
Sequence IVQYENLKY has a Kd (HLA-A*01:01 [8]; [16]) of 5.95 µM and a Kd (HLA-A*30:02; [16]) of 0.191 µM.
Work on ASKSLKPTK yielded a Kd (HLA-A*30:01; [14]) of 0.0151 µM.
Work on SFYADPKRFF yielded a Kd (HLA-A*23:01; [25]) of 0.126 µM, a Kd (HLA-A*24:02; [25]) of 0.709 µM and a Kd (HLA-A*29:02; [25]) of 0.0444 µM.
With AIFFTTSLF the Kd (HLA-A*23:01; [26]) was 0.246 µM, the Kd (HLA-A*24:02; [26]) was 1.21 µM and the Kd (HLA-A*29:02; [26]) was 0.274 µM.
With KRLEELLPA the IC50 (HLA-A*02:01 [4]; [18]) was ≥ 683 µM.
